Consider 3 substances from US20260115255A1.

Like-named read-outs stand apart in the source and are kept apart here.

The target of assay [1] is IL-2/IL-15Rβγ on kit225 cells (UniProt P14784). The assay can be described thus: cell-based or functional assay.
Assay [2] concerns the target PD-1 on PD-1 Effector Cells (UniProt Q15116). The assay can be described thus: cell-based or functional assay.
The target in assay [3] is IL-2/IL-15Rβγ on kit225 cells (UniProt P14784). The assay can be described thus: cell-based or functional assay. This is another data set of the same source.
The target of assay [4] is FcγRIIIa V158 (human) (UniProt P08637). The assay can be described thus: SPR; ratio of affinity (1/Kd) for FcγRIIIa V158 to affinity for FcγRIIb.
Assay [5] addresses FcγRIIIa F158 (human) (UniProt P08637). The experiment in a line: SPR; ratio of affinity (1/Kd) for FcγRIIIa F158 to affinity for FcγRIIb.

IL-2/IL-15Rβγ on kit225 cells, sequence (P14784 27-551 limits assumed, chain 1 of 2): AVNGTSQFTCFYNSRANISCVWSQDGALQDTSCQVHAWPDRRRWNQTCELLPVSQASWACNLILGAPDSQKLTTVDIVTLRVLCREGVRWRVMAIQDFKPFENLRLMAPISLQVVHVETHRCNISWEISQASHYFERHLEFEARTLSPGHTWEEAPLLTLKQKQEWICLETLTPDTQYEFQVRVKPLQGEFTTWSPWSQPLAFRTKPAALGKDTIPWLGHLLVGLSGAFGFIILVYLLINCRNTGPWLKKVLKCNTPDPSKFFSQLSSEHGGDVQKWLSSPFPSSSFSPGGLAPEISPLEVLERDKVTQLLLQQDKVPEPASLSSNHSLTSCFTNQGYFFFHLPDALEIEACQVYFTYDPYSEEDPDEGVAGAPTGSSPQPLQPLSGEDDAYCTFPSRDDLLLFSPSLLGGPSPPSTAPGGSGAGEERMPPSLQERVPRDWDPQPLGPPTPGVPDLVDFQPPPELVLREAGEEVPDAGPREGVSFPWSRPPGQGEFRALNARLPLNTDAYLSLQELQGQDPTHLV
IL-2/IL-15Rβγ on kit225 cells, sequence (P31785 23-369 limits assumed, chain 2 of 2, further chain): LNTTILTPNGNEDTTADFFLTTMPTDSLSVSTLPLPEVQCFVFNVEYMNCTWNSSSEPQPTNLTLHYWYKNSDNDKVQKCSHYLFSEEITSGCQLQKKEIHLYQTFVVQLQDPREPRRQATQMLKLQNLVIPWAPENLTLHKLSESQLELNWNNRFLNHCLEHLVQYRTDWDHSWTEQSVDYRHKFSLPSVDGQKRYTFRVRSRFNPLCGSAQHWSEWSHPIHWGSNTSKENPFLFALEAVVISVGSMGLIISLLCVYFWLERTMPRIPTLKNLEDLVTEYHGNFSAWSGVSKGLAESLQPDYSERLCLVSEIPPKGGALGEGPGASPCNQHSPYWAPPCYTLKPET
PD-1 on PD-1 Effector Cells, sequence (Q15116 25-288 limits assumed): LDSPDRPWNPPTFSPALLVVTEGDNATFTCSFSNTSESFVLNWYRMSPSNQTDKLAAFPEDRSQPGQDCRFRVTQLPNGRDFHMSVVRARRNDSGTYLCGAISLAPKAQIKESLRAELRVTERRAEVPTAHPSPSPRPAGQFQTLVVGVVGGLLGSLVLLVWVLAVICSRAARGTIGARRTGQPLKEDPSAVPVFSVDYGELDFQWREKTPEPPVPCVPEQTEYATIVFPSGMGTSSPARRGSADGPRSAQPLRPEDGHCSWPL

In assay [1], PD1-IL2v returned an EC50 kit225 cells of 3.02 nM and a Relative potency to SOT101 of 1.19%. In assay [2], this substance displayed an EC50, PD-1/PD-L1 Blockade Bioassay of 4.57 nM and a Relative potency vs Keytruda of 38.6%. In assay [3], the EC50 kit225 cells stood at 3.94 nM, the EC50 on kit225 cells was found to be 3.02 nM and the Relative potency to SOT201 was determined as 455%.

In assay [1], SOT201 wt (with RLI2AQ) came in with an EC50 kit225 cells of 0.249 nM and a Relative potency to SOT101 of 14.4%.

For the substance Zolbetuximab (antibody), in assay [4], the A/I (V158) was 161. For the same substance, in assay [5], the A/I (F158) is 32.9.
